B1: Actin nucleation-promoting factor WAS (Homo sapiens), P42768 (parent)
chain: MSGGPMGGRPGGRGAPAVQQNIPSTLLQDHENQRLFEMLGRKCLTLATAVVQLYLALPPGAEHWTKEHCGAVCFVKDNPQKSYFIRLYGLQAGRLLWEQELYSQLVYSTPTPFFHTFAGDDCQAGLNFADEDEAQAFRALVQEKIQKRNQRQSGDRRQLPPPPTPANEERRGGLPPLPLHPGGDQGGPPVGPLSLGLATVDIQNPDITSSRYRGLPAPGPSPADKKRSGKKKISKADIGAPSGFKHVSHVGWDPQNGFDVNNLDPDLRSLFSRAGISEAQLTDAETSKLIYDFIEDQGGLEAVRQEMRRQEPLPPPPPPSRGGNQLPRPPIVGGNKGRSGPLPPVPLGIAPPPPTPRGPPPPGRGGPPPPPPPATGRSGPLPPPPPGAGGPPMPPPPPPPPPPPSSGNGPAPPPLPPALVPAGGLAPGGGRGALLDQIRQGIQLNKTPGAPESSALQPPPQSSEGLVGALMHVMQKRSRAIHSSDEGEDQAGDEDEDDEWDD

Variants of: B1
Settings: with wipf1_human WIPF1, O43516
Chain of wipf1_human WIPF1, O43516 (O43516 whole entry): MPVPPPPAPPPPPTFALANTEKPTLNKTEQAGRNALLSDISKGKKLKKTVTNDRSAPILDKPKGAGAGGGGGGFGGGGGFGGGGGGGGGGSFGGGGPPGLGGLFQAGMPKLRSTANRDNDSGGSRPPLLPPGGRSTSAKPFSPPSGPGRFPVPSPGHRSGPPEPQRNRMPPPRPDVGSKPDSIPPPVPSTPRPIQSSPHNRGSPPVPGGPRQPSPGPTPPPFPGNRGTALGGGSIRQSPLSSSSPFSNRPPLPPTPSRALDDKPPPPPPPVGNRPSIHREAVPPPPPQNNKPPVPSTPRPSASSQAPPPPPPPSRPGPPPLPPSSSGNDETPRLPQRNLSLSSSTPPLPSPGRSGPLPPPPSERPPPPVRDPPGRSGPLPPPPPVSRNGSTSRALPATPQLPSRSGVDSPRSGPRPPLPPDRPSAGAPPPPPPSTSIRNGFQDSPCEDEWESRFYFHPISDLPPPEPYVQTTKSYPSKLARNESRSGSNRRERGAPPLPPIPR

Effect of a mutation on the interaction, decreasing interaction:
Y107C
R86H
A134T

Source: IntAct's records for PubMed 10202051
